Target: Human recombinant voltage-dependent anion channel (human, UniProt P21796 1-283)
Assay: radioligand binding

Sequence of Human recombinant voltage-dependent anion channel (P21796 whole entry): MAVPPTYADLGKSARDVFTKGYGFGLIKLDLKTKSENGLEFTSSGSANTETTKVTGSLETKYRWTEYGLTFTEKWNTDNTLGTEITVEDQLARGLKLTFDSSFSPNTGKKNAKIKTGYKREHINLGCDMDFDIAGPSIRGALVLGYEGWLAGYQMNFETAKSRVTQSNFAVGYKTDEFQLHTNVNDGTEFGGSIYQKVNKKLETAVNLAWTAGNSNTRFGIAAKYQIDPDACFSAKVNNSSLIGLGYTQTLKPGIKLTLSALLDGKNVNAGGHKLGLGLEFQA

MIAAQLLAYYFTELKDDQVKKC [HK-I peptide Met1-Lys21 (P2)]
binding result: binds

Reference: publication PMC2943043 (Journal of neuroimmunology, 2010)
